Key:
c-Fos = molecular target: T1, c-Fos (UniProt P01100 1-380, limits assumed); assay: similar assays (two-hybrid / co-immunoprecipitation; not specified)
T1 construct: Tested in 'similar assays'; The construct is not described

ATF-2 = molecular target: T2, ATF-2 (UniProt P15336 1-505, limits assumed); assay: as above
T2 construct: Tested in 'similar assays'; The construct is not described
T2 sequence (looked up): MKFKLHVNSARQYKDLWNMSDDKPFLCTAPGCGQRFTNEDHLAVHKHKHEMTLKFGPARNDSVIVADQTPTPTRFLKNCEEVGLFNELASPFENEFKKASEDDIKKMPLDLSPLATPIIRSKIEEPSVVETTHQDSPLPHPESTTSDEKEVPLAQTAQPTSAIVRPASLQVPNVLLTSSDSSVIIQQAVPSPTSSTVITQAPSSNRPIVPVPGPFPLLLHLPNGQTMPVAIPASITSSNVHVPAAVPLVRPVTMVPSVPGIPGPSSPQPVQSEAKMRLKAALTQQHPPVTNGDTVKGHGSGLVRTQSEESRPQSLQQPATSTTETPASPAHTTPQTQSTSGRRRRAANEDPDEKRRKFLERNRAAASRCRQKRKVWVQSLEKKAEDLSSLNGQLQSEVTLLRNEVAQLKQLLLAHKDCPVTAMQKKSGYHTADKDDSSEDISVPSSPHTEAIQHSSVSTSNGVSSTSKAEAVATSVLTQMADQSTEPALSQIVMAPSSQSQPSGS

T1 sequence (P01100 whole entry): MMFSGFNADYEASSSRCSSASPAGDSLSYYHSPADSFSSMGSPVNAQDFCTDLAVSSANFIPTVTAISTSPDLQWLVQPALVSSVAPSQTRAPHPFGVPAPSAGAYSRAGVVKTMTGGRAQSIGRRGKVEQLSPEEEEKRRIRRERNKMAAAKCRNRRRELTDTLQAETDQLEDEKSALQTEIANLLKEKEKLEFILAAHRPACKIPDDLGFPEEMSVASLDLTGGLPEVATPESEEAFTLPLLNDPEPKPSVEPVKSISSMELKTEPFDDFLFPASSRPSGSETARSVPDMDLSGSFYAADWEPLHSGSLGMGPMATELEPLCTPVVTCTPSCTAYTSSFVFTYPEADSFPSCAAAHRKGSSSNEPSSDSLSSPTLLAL

- binding result (c-Fos): no binding
- binding result (ATF-2): no binding
B1: HA-tagged SARI (Suppressor of AP-1, Regulated by IFN), expressed in HeLa cells from Ad.SARI (other)
chain: MHLCGGNGLLTQTDPKEQQRQLKKQKNRAAAQRSRQKHTDKADALHQQHESLEKDNLALRKEIQSLQAELAWWSRTLHVHERLCPMDCASCSAPGLLGCWDQAEGLLGPGPQGQHGCREQLELFQTPGSCYPAQPLSPGPQPHDSPSLLQCPLPSLSLGPAVVAEPPVQLSPSPLLFASHTGSSLQGSSSKLSALQPSLTAQTAPPQPLELEHPTRGKLGSSPDNPSSALGLARLQSREHKPALSAATWQGLVVDPSPHPLLAFPLLSSAQVHF
notes: also called SARI protein; WT SARI; not shown: HA tag

From patent publication US20110313028A1 (VIRGINIA COMMONWEALTH UNIVERSITY, published 2011)
